Assay results reported in the RNAGym collection of RNA variant scans (doi:10.7554/elife.80360).

B1: HDV Ribozyme (parent)
chain: GGCCGGCAUGGUCCCAGCCUCCUCGCUGGCGCCGGCUGGGCAACAUUCCGAGGGGACCGUCCCCUCGGUAAUGGCGAAUGGGACCCA

Variants of: B1
Assay: self-cleavage, relative activity (ratio to wild type); higher = more cleavage; co-transcriptional

Variant	self-cleavage
U20A G59C	0.0475
U20A G59U	0.222
U20A C44A	0.0573
U20A C44G	0.111
U20A C44U	0
U20G G34C	0.138
U20G G34U	0.0519
U20C C64A	0.145
U20C C64G	0.128
U20A A70C	0.104
U20A A70U	0.0615
U20A A70G	0.147
C19U U60A	0.192
C19U U60C	0.0906
C19U U60G	0.182
U20C C24U	0.0475
U20C U72G	0.0723
U20G C26G	0.196
U20G C26A	0.32
U20G G68U	0.201
U20G G68C	0.166

Variant	self-cleavage
C19U G54C	0.2
C19U U46A	0.0875
U20A C21U	0.0898
U20G G38A	0.0573
U20G G38C	0.0489
C19U G80C	0.112
C19U G80U	0.0642
U20C G53A	0.122
U20C G53U	0.101
U20A C57G	0
U20A C57U	0.0707
U20A C62G	0.0639
C19U U27G	0.237
U20C G74A	0.125
U20C C84U	0.111
U20A C49U	0.0665
C19U U79C	0.0415
U20G G50C	0.138
U20G G50U	0.18
U20C C26U	0.192
U20C C26A	0.104

Variant	self-cleavage
U20A C24G	0.0449
U20G C32A	0
U20G C32U	0.0519
U20G C21G	0
U20G C21A	0.142
U20G A56G	0.151
U20G A56C	0.196
U20A A87C	0.0631
U20A A87G	0.0831
U20A A87U	0.0282
U20C G73A	0
U20C G73C	0.135
U20C C63U	0.0898
U20C C63G	0.104
U20C C21U	0.0339
U20G C30G	0.0554
U20G C30U	0
C19U U37C	0.185
C19U U37A	0.0936
C19U U37G	0.0755
U20A G67C	0

Variant	self-cleavage
U20A G67A	0.0462
U20A G67U	0.115
U20G G52A	0.499
U20G G52C	0.256
U20G G73C	0
U20G G73U	0.136
C19U U23A	0.129
U20C G76C	0.0773
U20G C75A	0.0978
U20G C75G	0
U20C G82U	0.0449
U20C G82A	0.0462
U20C C41A	0.156
U20C C41U	0.0449
U20A C58A	0.0615
U20A C58G	0.158
U20G G25C	0
U20A G40C	0.178
U20C A56C	0.0615
U20C A56U	0.266
U20C A56G	0.101
